Assays:
Assay in all cases: specificity ELISA as in Example 2, receptor coated
[1] = target: T1, Soluble DR4 protein (R&D Systems Catalog #347-DR-100/CF) (human, UniProt O00220 24-239, limits assumed)
T1 construct: also called human DR4; TRAILR1
T1 sequence (looked up): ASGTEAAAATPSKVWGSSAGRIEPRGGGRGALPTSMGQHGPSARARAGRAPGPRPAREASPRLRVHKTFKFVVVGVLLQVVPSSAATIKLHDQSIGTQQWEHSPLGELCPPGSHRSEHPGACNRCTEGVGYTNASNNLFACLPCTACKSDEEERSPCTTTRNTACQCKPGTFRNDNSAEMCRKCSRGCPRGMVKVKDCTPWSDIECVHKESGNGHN
Experimental: (§1) Soluble DR5, DR4, DcR1, or DcR2 protein (R&D Systems Catalog #631-T2-100/CF, 347-DR-100/CF, 630-TR-100/CF, 633-TR-100 respectively) were coated on an ELISA plate at 2 μg/mL in 100 mM NaHCO₃ pH 9.5 overnight at 4° C. A solution of 2% BSA in PBS was used for the blocking and antibody incubation steps. The plate was blocked for 1 hour at room temperature, then incubated with mouse anti-human DR5 mAb (Acris Antibodies Catalog #AM31206AF-N) for 1 hour at room temperature. anti-DR5 mAb was 3-fold serially diluted to concentrations ranging from 1 to 200 μg/mL. After washing 3 times with PBS plus 0.05% Tween-20, the plate was incubated with rat anti-mouse kappa-HRP (Southern Biotech Catalog #1180-05) for 1 hour at room temperature, protected from light. After washing 3 times with PBS plus 0.05% Tween-20, the plate was incubated with TMB substrate (BD Biosciences Catalog #555214) for 20 minutes at room temperature. The reaction was stopped with 1M H₂SO₄ and absorbance at 450 nm was determined using a microtiter plate reader.
(§2) For Human Anti-DR5 mAb ELISAs, 1:2000 Mouse Anti-Human Lambda-HRP (Southern Biotech Catalog #9180-05) or 1:6000 Mouse Anti-Human Kappa-HRP (Southern Biotech Catalog #9230-05) was used for detection.
(§3) An IgG version and pentameric IgM-J chain version of anti-DR5 mAb #2 were tested for binding specificity by ELISA as described in Example 2. As shown in FIG. 8A (IgG) and FIG. 8B (IgM), the antibodies bound to human DR5 but not human DR4 or either of the decoy receptors DcR1 or DcR2.

[2] = target: T2, Soluble DcR2 protein (R&D Systems Catalog #633-TR-100) (UniProt Q9UBN6 56-211, limits assumed)
T2 construct: also called decoy receptor DcR2; TRAILR4
T2 sequence (looked up): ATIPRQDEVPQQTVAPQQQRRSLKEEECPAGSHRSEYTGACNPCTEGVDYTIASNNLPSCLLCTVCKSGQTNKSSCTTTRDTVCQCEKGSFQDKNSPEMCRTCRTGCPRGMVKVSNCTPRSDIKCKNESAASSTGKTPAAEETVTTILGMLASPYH
Experimental: as §1, §2, §3

[3] = target: T3, Soluble DcR1 protein (R&D Systems Catalog #630-TR-100/CF) (UniProt O14798 26-221, limits assumed)
T3 construct: also called decoy receptor DcR1; TRAILR3
T3 sequence (looked up): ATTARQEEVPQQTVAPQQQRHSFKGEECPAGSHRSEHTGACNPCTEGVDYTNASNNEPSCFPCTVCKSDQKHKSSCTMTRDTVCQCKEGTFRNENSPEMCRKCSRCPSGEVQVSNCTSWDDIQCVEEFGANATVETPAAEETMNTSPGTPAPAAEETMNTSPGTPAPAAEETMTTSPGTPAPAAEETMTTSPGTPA
Experimental: as §1, §2, §3

binding result [1]: no binding | binding result [2]: no binding | binding result [3]: no binding
B1: Anti-DR5 mAb #2, pentameric IgM-J chain version (antibody, V domains shown)
VH: QVQLQESGPGLVKPSQTLSLTCTVSGGSISSGDYFWSWIRQLPGKGLECIGHIHNSGTTYYNPSLKSRVTISVDTSKKQFSLRLSSVTAADTAVYYCARDRGGDYYYGMDVWGQGTTVTVSS
VL: EIVLTQSPGTLSLSPGERATLSCRASQGISRSYLAWYQQKPGQAPSLLIYGASSRATGIPDRFSGSGSGTDFTLTISRLEPEDFAVYYCQQFGSSPWTFGQGTKVEIK
modifications: Assembled as a pentamer of bivalent IgM binding units with one J chain (10 VH/VL pairs); the letters do not carry this.
notes: VH and VL were inserted into proprietary IgM vectors; also called DR5 MAb IgM #2; IgM Anti-DR5 mAb #2; not shown: IgM heavy-chain constant region, kappa light-chain constant region and J chain of the construct

From patent US20180009897A1 (IGM BIOSCIENCES, published 2018)
